B1: ERR3: Estrogen Related Receptor γ (NR3B3, ERRg), cDNA driver (protein, UniProt P62508 1-458, looked up)
Estrogen-related receptor …: MDSVELCLPESFSLHYEEELLCRMSNKDRHIDSSCSSFIKTEPSSPASLTDSVNHHSPGGSSDASGSYSSTMNGHQNGLDSPPLYPSAPILGGSGPVRKLYDDCSSTIVEDPQTKCEYMLNSMPKRLCLVCGDIASGYHYGVASCEACKAFFKRTIQGNIEYSCPATNECEITKRRRKSCQACRFMKCLKVGMLKEGVRLDRVRGGRQKYKRRIDAENSPYLNPQLVQPAKKPYNKIVSHLLVAEPEKIYAMPDPTVPDSDIKALTTLCDLADRELVVIIGWAKHIPGFSTLSLADQMSLLQSAWMEILILGVVYRSLSFEDELVYADDYIMDEDQSKLAGLLDLNNAILQLVKKYKSMKLEKEEFVTLKAIALANSDSMHIEDVEAVQKLQDVLHEALQDYEAGQHMEDPRRAGKMLMTLPLLRQTSTKAVQHFYNIKLEGKVPMHKLFLEMLEAKV
B2: CTF1: COUP-TF1 (NR2F1), cDNA driver (protein, UniProt P10589 1-423, looked up)
COUP transcription factor 1: MAMVVSSWRDPQDDVAGGNPGGPNPAAQAARGGGGGAGEQQQQAGSGAPHTPQTPGQPGAPATPGTAGDKGQGPPGSGQSQQHIECVVCGDKSSGKHYGQFTCEGCKSFFKRSVRRNLTYTCRANRNCPIDQHHRNQCQYCRLKKCLKVGMRREAVQRGRMPPTQPNPGQYALTNGDPLNGHCYLSGYISLLLRAEPYPTSRYGSQCMQPNNIMGIENICELAARLLFSAVEWARNIPFFPDLQITDQVSLLRLTWSELFVLNAAQCSMPLHVAPLLAAAGLHASPMSADRVVAFMDHIRIFQEQVEKLKALHVDSAEYSCLKAIVLFTSDACGLSDAAHIESLQEKSQCALEEYVRSQYPNQPSRFGKLLLRLPSLRTVSSSVIEQLFFVRLVGKTPIETLIRDMLLSGSSFNWPYMSIQCS
B3: CTF2: COUP-TF2 (NR2F2), cDNA driver (protein, UniProt P24468 1-414, looked up)
COUP transcription factor 2: MAMVVSTWRDPQDEVPGSQGSQASQAPPVPGPPPGAPHTPQTPGQGGPASTPAQTAAGGQGGPGGPGSDKQQQQQHIECVVCGDKSSGKHYGQFTCEGCKSFFKRSVRRNLSYTCRANRNCPIDQHHRNQCQYCRLKKCLKVGMRREAVQRGRMPPTQPTHGQFALTNGDPLNCHSYLSGYISLLLRAEPYPTSRFGSQCMQPNNIMGIENICELAARMLFSAVEWARNIPFFPDLQITDQVALLRLTWSELFVLNAAQCSMPLHVAPLLAAAGLHASPMSADRVVAFMDHIRIFQEQVEKLKALHVDSAEYSCLKAIVLFTSDACGLSDVAHVESLQEKSQCALEEYVRSQYPNQPTRFGKLLLRLPSLRTVSSSVIEQLFFVRLVGKTPIETLIRDMLLSGSSFNWPYMAIQ
B4: ERR2: Estrogen Related Receptor β (NR3B2, ERRb), cDNA driver (protein, UniProt O95718 1-433, looked up)
Steroid hormone receptor ERR2: MSSDDRHLGSSCGSFIKTEPSSPSSGIDALSHHSPSGSSDASGGFGLALGTHANGLDSPPMFAGAGLGGTPCRKSYEDCASGIMEDSAIKCEYMLNAIPKRLCLVCGDIASGYHYGVASCEACKAFFKRTIQGNIEYSCPATNECEITKRRRKSCQACRFMKCLKVGMLKEGVRLDRVRGGRQKYKRRLDSESSPYLSLQISPPAKKPLTKIVSYLLVAEPDKLYAMPPPGMPEGDIKALTTLCDLADRELVVIIGWAKHIPGFSSLSLGDQMSLLQSAWMEILILGIVYRSLPYDDKLVYAEDYIMDEEHSRLAGLLELYRAILQLVRRYKKLKVEKEEFVTLKALALANSDSMYIEDLEAVQKLQDLLHEALQDYELSQRHEEPWRTGKLLLTLPLLRQTAAKAVQHFYSVKLQGKVPMHKLFLEMLEAKV
B5: CTF3: COUP-TF3 (NR2F6), cDNA driver (protein, UniProt P10588 1-404, looked up)
Nuclear receptor subfamily 2 …: MAMVTGGWGGPGGDTNGVDKAGGYPRAAEDDSASPPGAASDAEPGDEERPGLQVDCVVCGDKSSGKHYGVFTCEGCKSFFKRSIRRNLSYTCRSNRDCQIDQHHRNQCQYCRLKKCFRVGMRKEAVQRGRIPHSLPGAVAASSGSPPGSALAAVASGGDLFPGQPVSELIAQLLRAEPYPAAAGRFGAGGGAAGAVLGIDNVCELAARLLFSTVEWARHAPFFPELPVADQVALLRLSWSELFVLNAAQAALPLHTAPLLAAAGLHAAPMAAERAVAFMDQVRAFQEQVDKLGRLQVDSAEYGCLKAIALFTPDACGLSDPAHVESLQEKAQVALTEYVRAQYPSQPQRFGRLLLRLPALRAVPASLISQLFFMRLVGKTPIETLIRDMLLSGSTFNWPYGSGQ

Tested on: mCAR promoter
Experiment: NHR-promoter luciferase screen, mCAR promoter
Assay type: cell-based, mouse
Settings: mCAR promoter-luciferase, CV-1 cells, NHR +/- ligand, control = 1.00
In short: (§1)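 CV-1 cells were co-transfected with 50 ng NHR (homodimer or NHR/RXR heterodimer), 100 ng promoter-luciferase construct and 50 ng LacZ. Luciferase was normalized to LacZ and to a no-NHR/no-ligand control.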

Molecule	luciferase activity normalized to lacZ activity and to a control, mCAR
B1	2.87
B2	0.31
B3	0.51
B4	0.99
B5	0.29

Same assay, conditions: mCAR promoter; HR/ligand component

Molecule	Luc. act., normalized to lacZ	Normalized Luc. act., normalized to control
B1	109.5	2.9
B2	11.8	0.3
B3	19.3	0.5
B4	37.8	1.0
B5	11.2	0.3

Tested on: hCAR promoter
Experiment: NHR-promoter luciferase screen, hCAR promoter
Assay type: cell-based, human
Settings: hCAR promoter-luciferase, CV-1 cells, NHR +/- ligand, control = 1.00
In short: as §1

Molecule	luciferase activity normalized to lacZ activity and to a control, hCAR
B1	1.34
B2	0.14
B3	0.23
B4	0.77
B5	0.14

Same assay, conditions: hCAR promoter; HR/ligand component

Molecule	Luc. act., normalized to lacZ	Normalized Luc. act., normalized to control
B1	42.2	1.3
B2	4.5	0.1
B3	7.2	0.2
B4	24.2	0.8
B5	4.5	0.1

Tested on: hPOMC promoter
Experiment: NHR-promoter luciferase screen, hPOMC promoter
Assay type: cell-based, human
Settings: hPOMC promoter-luciferase, NHR +/- ligand, control = 1.0
In short: as §1

Molecule	luciferase/LacZ, hPOMC (selected results)
B1	4.1

Same assay, conditions: hPOMC promoter; HR/ligand component

Molecule	Luc. act., normalized to lacZ	Normalized Luc. act., normalized to control
B1	17.6	4.1
B2		0.0
B3		0.0
B4	11.6	2.7
B5	1.8	0.4

Same assay, conditions: transcription factor +/- ligand; control = 1.00

Molecule	hPOMC promoter reporter activity
B1	4.09
B2	0.00
B3	0.00
B4	2.70
B5	0.42

Tested on: mPOMC promoter
Experiment: NHR-promoter luciferase screen, mPOMC promoter
Assay type: cell-based, mouse
Settings: Table 6d; luciferase activity relative to control (control = 1.00)
In short: as §1

Molecule	Results of assays of transcription factor (+/- ligand) with mPOMC
B1	2.02
B2	0.73
B3	0.94
B4	1.57
B5	0.75

Same assay, conditions: mPOMC promoter; HR component with or without ligand

Molecule	Luc. act., normalized to lacZ
B1	139.4
B2	50.0
B3	64.6
B4	108.6
B5	51.8

Same assay, conditions: mPOMC promoter; HR component with or without ligand; relative to control

Molecule	Normalized Luc. act., normalized to control
B1	2.0
B2	0.7
B3	0.9
B4	1.6
B5	0.8

Tested on: mDio1 promoter
Experiment: NHR-promoter luciferase screen, mDio1 promoter
Assay type: cell-based, mouse
Settings: Dio1; HR component without or with its ligand
In short: as §1

Molecule	Luc. act., normalized to lacZ	Normalized Luc. act., normalized to control
B1	5.9	1.3
B2	17.3	3.9
B3	20.9	4.7
B4	13.6	3.1
B5	10.0	2.2

Same assay, conditions: transcription factor +/- ligand; control = 1.00

Molecule	mDio1 promoter reporter activity
B1	1.32
B2	3.89
B3	4.69
B4	3.05
B5	2.23

Tested on: mABCA1 promoter
Experiment: NHR-promoter luciferase screen, mABCA1 promoter
Assay type: cell-based, mouse
Settings: ABCA1 promoter; hormone receptor with or without its ligand
In short: as §1

Molecule	Luc. act., normalized to lacZ
B1	11.4
B2	5.5
B3	4.7
B4	33.0
B5	5.6

Same assay, conditions: ABCA1 promoter; hormone receptor with or without its ligand; relative to control

Molecule	Normalized Luc. act., normalized to control
B1	2.0
B2	1.0
B3	0.8
B4	5.9
B5	1.0

Same assay, conditions: transcription factor +/- ligand; control = 1.00

Molecule	mABCA1 promoter reporter activity
B1	2.04
B2	0.99
B3	0.84
B4	5.88
B5	1.01
